Assays:
14 types of cancer cells = experiment: Direct exposure of cancer cells to the polypeptides (direct killing); type: cell-based, human; conditions: cancer cells exposed to the polypeptides or protein without T cells
[1] = test system: HLA-A0201-positive CD8-positive T cells; experiment: IFN-γ-producing ability of HLA-A0201-positive CD8-positive T cells against polypeptide-pulsed dendritic cells (ELISA); type: cell-based, human; conditions: dendritic cells expressing HLA-A0201 pulsed with 10 μg/mL polypeptide, 24 hours, FIG. 2
Procedure: Peripheral blood was separated from the blood of an HLA-A0201-positive healthy individual. The peripheral blood was layered on Lymphocyte separation medium (Organon Teknika Corporation, Durham, NC), and then centrifuged at 1,500 rpm at room temperature for 20 minutes. A PBMC-containing fraction was collected and washed 3 times (or more) with a cold phosphate buffer solution to obtain PBMCs. The thus obtained PBMCs were suspended in 20 mL of AIM-V medium (manufactured by Life Technologies, Inc.), and allowed to adhere to a culture flask (manufactured by Falcon Plastics Co.) for 2 hours under the conditions of 37° C. and 5% CO2. Non-adherent cells were used for the preparation of T cells, and adherent cells were used for the preparation of dendritic cells.
The adherent cells were cultured in AIM-V medium in the presence of IL-4 (1,000 U/ml) and GM-CSF (1,000 U/ml). Six days later, the medium was replaced with AIM-V medium supplemented with IL-4 (1,000 U/mL), GM-CSF (1,000 U/mL), IL-6 (1,000 U/mL, manufactured by Genzyme Corporation), IL-1B (10 ng/ml, manufactured by Genzyme Corporation) and TNF-α (10 ng/ml, manufactured by Genzyme Corporation), and the cells were cultured for another 2 days. The resulting population of the non-adherent cells was used as the dendritic cells.
The thus prepared dendritic cells were suspended in AIM-V medium at a cell density of 1×10^6 cells/mL. […]

B1: full-length PDS5A protein: human PDS5A protein of 1337 amino acid residues, prepared according to Example 5 in WO 2011/027807; Comparative Example (protein, listed as Homo sapiens)
chain: MDFTAQPKPATALCGVVSADGKIAYPPGVKEITDKITTDEMIKRLKMVVKTFMDMDQDSEDEKQQYLPLALHLASEFFLRNPNKDVRLLVACCLADIFRIYAPEAPYTSHDKLKDIFLFITRQLKGLEDTKSPQFNRYFYLLENLAWVKSYNICFELEDCNEIFIQLFRTLFSVINNSHNKKVQMHMLDLMSSIIMEGDGVTQELLDSILINLIPAHKNLNKQSFDLAKVLLKRTVQTIEACIANFFNQVLVLGRSSVSDLSEHVFDLIQELFAIDPHLLLSVMPQLEFKLKSNDGEERLAVVRLLAKLFGSKDSDLATQNRPLWQCFLGRFNDIHVPVRLESVKFASHCLMNHPDLAKDLTEYLKVRSHDPEEAIRHDVIVTIITAAKRDLALVNDQLLGFVRERTLDKRWRVRKEAMMGLAQLYKKYCLHGEAGKEAAEKVSWIKDKLLHIYYQNSIDDKLLVEKIFAQYLVPHNLETEERMKCLYYLYASLDPNAVKALNEMWKCQNMLRSHVRELLDLHKQPTSEANCSAMFGKLMTIAKNLPDPGKAQDFVKKFNQVLGDDEKLRSQLELLISPTCSCKQADICVREIARKLANPKQPTNPFLEMVKFLLERIAPVHIDSEAISALVKLMNKSIEGTADDEEEGVSPDTAIRSGLELLKVLSFTHPTSFHSAETYESLLQCLRMEDDKVAEAAIQIFRNTGHKIETDLPQIRSTLIPILHQKAKRGTPHQAKQAVHCIHAIFTNKEVQLAQIFEPLSRSLNADVPEQLITPLVSLGHISMLAPDQFASPMKSVVANFIVKDLLMNDRSTGEKNGKLWSPDEEVSPEVLAKVQAIKLLVRWLLGMKNNQSKSANSTLRLLSAMLVSEGDLTEQKRISKSDMSRLRLAAGSAIMKLAQEPCYHEIITPEQFQLCALVINDECYQVRQIFAQKLHKALVKLLLPLEYMAIFALCAKDPVKERRAHARQCLLKNISIRREYIKQNPMATEKLLSLLPEYVVPYMIHLLAHDPDFTRSQDVDQLRDIKECLWFMLEVLMTKNENNSHAFMKKMAENIKLTRDAQSPDESKTNEKLYTVCDVALCVINSKSALCNADSPKDPVLPMKFFTQPEKDFCNDKSYISEETRVLLLTGKPKPAGVLGAVNKPLSATGRKPYVRSTGTETGSNINVNSELNPSTGNRSREQSSEAAETGVSENEENPVRIISVTPVKNIDPVKNKEINSDQATQGNISSDRGKKRTVTAAGAENIQQKTDEKVDESGPPAPSKPRRGRRPKSESQGNATKNDDLNKPINKGRKRAAVGQESPGGLEAGNAKAPKLQDLAKKAAPAERQIDLQR
In the case of B1, the “activity to directly kill the cancer cells” value (14 types of cancer cells) is reported as “no cancer cells were killed at all” and the “amount of IFN-γ produced” value [1] is reported as “low”.
